In the supplement of paper PMC10567573 one finds protein stability index data, which are given here for 94 variants.

Sequences and labels used below:
B1: NR2F2 (parent)
chain: VAHVESLQEKSQCALEEYVRSQYP
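Also: lentivirally expressed fusions sorted by FACS into six bins by GFP to DsRed ratio, PSI derived from sequencing read proportions per bin multiplied by bin number.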

In the series the parent is B1. The experiment in a line: protein stability index of a GFP-peptide fusion (GPS, HEK-293T) (PSI 1-6); higher = more stable. The note with it: c terminus: a fixed tail appended.
As to VAHVESLQEKSLCALEEYVRSQYP, the protein stability index amounted to 2.68.
VAHVESLQEKSDCALEEYVRSQYP: the protein stability index was determined as 4.32.
For VAHVESLQEKSCCALEEYVRSQYP the value was 2.45; for VAHVESLQEKSECALEEYVRSQYP, 4.6.
Then VAHVESLQEKSICALEEYVRSQYP, with 2.49; and VAHVESLQEKSQCALPEYVRSQYP, with 3.74; and VAHVESLQEKSQCALQEYVRSQYP, with 3.68.
As for VAHVESLQEKSQCALYEYVRSQYP, the protein stability index worked out at 2.11.
For VAHVESLQEKSQCALLEYVRSQYP the value was 3.3.
For VAHVESLQEKSQCALAEYVRSQYP the value was 3.59.
For VAHVESLQEKSQCALREYVRSQYP the value was 3.65.
With VAHVESLQEKSQCALMEYVRSQYP, the protein stability index was determined as 2.89.
In the case of VAHVESLQEKSQCALFEYVRSQYP, the protein stability index stood at 2.35.
With VAHVESLQEKSQCALEEYVRSQQP, the protein stability index was 4.25.
For VAHVESLQEKSQCALEEYVRSQMP the value was 3.46.
Then VAHVESLQEKSQCALEEYVRSQKP, with 3.98; and VAHVESLQEKSQCALEEYVRSQNP, with 4.74.
For VAHVESLQEKSQCALEEYVRSQWP the value was 2.7; for VAHVESLQEKSQCALEEYVRSQEP, 4.71; for VAHVESLQEKSQCALEEYERSQYP, 5.1.
As to VAHVESLQEKSQCALEEYWRSQYP, the protein stability index was found to be 3.06.
Then VAHVESLQEKSQCALEEYHRSQYP, with 4.24; and VAHVESLQEKSQCALEEYCRSQYP, with 3.7; and VAHVESLQEKSQCALEEYTRSQYP, with 3.67.
Then VAHVESLQEKSQCALEEYPRSQYP, with 4.73.
Turning to VAHVESLQEKSQCALEEYYRSQYP, the protein stability index came to 3.56.
As for VAHVESLQEKSQCALEEYARSQYP, the protein stability index is 3.49.
For the variant FAHVESLQEKSQCALEEYVRSQYP, the protein stability index turned out to be 3.03.
For TAHVESLQEKSQCALEEYVRSQYP the value was 4.19; for YAHVESLQEKSQCALEEYVRSQYP, 3.39; for RAHVESLQEKSQCALEEYVRSQYP, 3.39.
On to LAHVESLQEKSQCALEEYVRSQYP, for which the protein stability index turned out to be 3.5.
For MAHVESLQEKSQCALEEYVRSQYP the value was 3.89.
With KAHVESLQEKSQCALEEYVRSQYP, the protein stability index came to 3.66.
For PAHVESLQEKSQCALEEYVRSQYP the value was 4.13.
Then VAHVESLQEKSQCALEEYVRSQYQ, with 3.35; and VAHVESLQEKSQCALEEYVRSQYH, with 3.33.
In the case of VAHVESLQEKSQCALEEYVRSQYN, the protein stability index amounted to 3.94.
In the case of VAHVESLQEKSQCALEEYVRSQYC, the protein stability index worked out at 3.14.
For VAHVESLQEKSQCALEEYVRSQYR the value was 4.01; for VAHVESLQEKSQCALEEYVRSQYK, 3.93.
For VAHVESLQEKSQCALEEYVRSQYD, the protein stability index came out at 4.29.
For VAHKESLQEKSQCALEEYVRSQYP, the protein stability index is 3.79.
In the case of VAHNESLQEKSQCALEEYVRSQYP, the protein stability index worked out at 4.12.
For VAHFESLQEKSQCALEEYVRSQYP the value was 2.85.
Take VAHSESLQEKSQCALEEYVRSQYP: the protein stability index came to 4.11.
For VAHAESLQEKSQCALEEYVRSQYP the value was 4.11; for VAHEESLQEKSQCALEEYVRSQYP, 4.37.
For VAHVESLQEKSQCALEWYVRSQYP the value was 2.11.
With VAHVESLQEKSQCALERYVRSQYP, the protein stability index is 3.62.
On to VAHVESLQEKSQCALEGYVRSQYP, for which the protein stability index was determined as 3.45.
In the case of VAHVESLQEKSQCALECYVRSQYP, the protein stability index was 2.89.
VAHVESLQEKSQCALEEYVRHQYP: the protein stability index came to 3.46.
Regarding VAHVESLQEKSQCALEEYVRLQYP, the protein stability index turned out to be 3.46.
Regarding VAHVESLQEKSQCALEEYVREQYP, the protein stability index came out at 3.77.
On to VAHVESLQEKSQCALEEYVRIQYP, for which the protein stability index was determined as 3.02.
Then VAHVESLQEKSQCALEEYVRPQYP, with 4.04.
Then VAHVESLQEKSQCALEEYVRCQYP, with 3.38.
For VAHVESLQEKSQCALEEYVRTQYP, the protein stability index stood at 3.95.
For VAHVESLQEKSQCALEEYVRQQYP the value was 3.53.
Then VAHVESLQEKSQCALEEYVRYQYP, with 2.89.
As to VAHVESLQEKSQCALEEYVRGQYP, the protein stability index amounted to 3.67.
For VAHVESLQEKSQCALEEYVRWQYP the value was 2.24; for VAHVESLQEKSQCALEEYVCSQYP, 3.87.
For VAHVESLQEKSQCALEEYVESQYP the value was 4.51; for VAHVESLQEKSQCALEEYVDSQYP, 4.71; for VAHVESLQEKSQCALEEYVTSQYP, 3.72.
VAHVESLQEKSQCALEEYVNSQYP: the protein stability index was found to be 3.14.
For VAHVESLQEKSQCALEEYVHSQYP the value was 3.86.
Regarding VAHVESLQEKSQCALEEYVLSQYP, the protein stability index amounted to 2.67.
Take VAHVESLGEKSQCALEEYVRSQYP: the protein stability index was determined as 3.56.
For VAHVESLNEKSQCALEEYVRSQYP the value was 3.75; for VAHVESLFEKSQCALEEYVRSQYP, 2.48; for VAHVESLSEKSQCALEEYVRSQYP, 3.48.
For the variant VAHVESLCEKSQCALEEYVRSQYP, the protein stability index amounted to 2.99.
As for VAHVESLTEKSQCALEEYVRSQYP, the protein stability index came to 3.53.
With VAHVESLIEKSQCALEEYVRSQYP, the protein stability index is 2.83.
Turning to VAHVESLQGKSQCALEEYVRSQYP, the protein stability index turned out to be 2.89.
Then VAHVESLQAKSQCALEEYVRSQYP, with 2.55; and VAHVESLQMKSQCALEEYVRSQYP, with 2.2.
Take VAHVESLQTKSQCALEEYVRSQYP: the protein stability index is 3.11.
Then VAHVESLQIKSQCALEEYVRSQYP, with 1.83.
Then VAHVESLQLKSQCALEEYVRSQYP, with 2.64.
As to VAHVESLQFKSQCALEEYVRSQYP, the protein stability index is 2.13.
Then VAHVESLQPKSQCALEEYVRSQYP, with 2.68.
For VAHVESLQEKSQCALEELVRSQYP the value was 3.01; for VAHVESLQEKSQCALEEWVRSQYP, 3.66.
For VAHVESLQEKSQCALEEVVRSQYP the value was 3.75; for VAHVESLQEKSQCALEEAVRSQYP, 3.97.
Regarding VAHVESLQEKSQCALEEFVRSQYP, the protein stability index is 3.33.
Then VAHVESLQEKSQCALEEKVRSQYP, with 3.94; and VAHVESLQEKSQCALEECVRSQYP, with 3.51.
Then VAHVESLQEKSQCALEESVRSQYP, with 4.25.
Then VAHVESLQEKSQCALEEIVRSQYP, with 3.55.
